Source: patent publication US20200317768A1 (published 2020)

B1: MS_M103205H781-SG1/M103202L719-SK1 (antibody, human IgG1, kappa, V domains shown)
VH: QVTLKESGPVLVKPTETLTLTCTVSGIDLSHTDISWVRQAPGKGLEWVGIISYAGSTYYMSWAKGRLTISKDTSKNQVVLTMTNMDPVDTATYYCARGVPAYSHGGDLWGQGTLVTVSS
VL: DIVMTQSPATLSLSPGERATLSCQSSQSVYHNNWLSWFQQKPGQPPKLLIYWASTLAFGVPSRFSGSGSGTDFTLTISSLQPEDAATYYCAGGYGGGLYAFGQGTKVEIKR
notes: also called MS1032LO02-SG1; MSLO-02
B2: MS_M103205H1057-SG1/M103202L889-SK1 (antibody, human IgG1, kappa, V domains shown)
VH: QVTLKESGPVLVKPTETLTLTCTVSGIDLSHTDISWVRQAPGKGLEWVGIISYAGSKYKASWAKGRLTISKDTSKNQVVLTMTNMDPVDTATYYCARGVPAYSHGGDLWGQGTLVTVSS
VL: DIVMTQSPATLSLSPGERATLSCTSSQSVYHANWLSWFQQKPGQPPKLLIYWASTLAYGVPSRFSGSGSGTDFTLTISSLQPEDAATYYCAGGYGGGRYAFGQGTKVEIKR
notes: also called MS1032LO12-SG1
B3: MS_M103205H1046-SG1/M103202L889-SK1 (antibody, human IgG1, kappa, V domains shown)
VH: QVTLKESGPVLVKPTETLTLTCTVSGIDLSHTDISWVRQAPGKGLEWVGIISYAGKTYYASWAKKRLTISKDTSKNQVVLTMTNMDPVDTATYYCARGVPAYSHGGDLWGQGTLVTVSS
VL: DIVMTQSPATLSLSPGERATLSCTSSQSVYHANWLSWFQQKPGQPPKLLIYWASTLAYGVPSRFSGSGSGTDFTLTISSLQPEDAATYYCAGGYGGGRYAFGQGTKVEIKR
notes: also called MS1032LO10-SG1
B4: MS_M103205H1795-SG1/M103202L1060-SK1 (antibody, human IgG1, kappa, V domains shown)
VH: QVTLKESGPVLVKPTETLTLTCTVSGIDLSHDDISWVRQAPGKGLEWVGIISYAGSTYYASWAKGRLTISKDTSKNQVVLTMTNMDPVDTATYYCARGVPAYSHGGDLWGQGTLVTVSS
VL: DIVMTQSPATLSLSPGERATLSCTSSQSVFHENWLSWFQQKPGQPPKLLIYWASTLAWGVPSRFSGSGSGTDFTLTISSLQPEDAATYYCAGGYGGGRYAFGQGTKVEIKR
notes: also called MS1032LO24-SG1

Key:
[1] = target: T1, Human latent myostatin (human, UniProt O14793 25-266; O14793 267-375); assay: SPR (BIACORE T200), 37 C, pH7.4, 1:1 fit; title prints avidity, by the text the affinity condition (capture 18.5 RU)
T1 construct: Biotinylated in the ELISAs; also called human myostatin latent form
T1 sequence 1: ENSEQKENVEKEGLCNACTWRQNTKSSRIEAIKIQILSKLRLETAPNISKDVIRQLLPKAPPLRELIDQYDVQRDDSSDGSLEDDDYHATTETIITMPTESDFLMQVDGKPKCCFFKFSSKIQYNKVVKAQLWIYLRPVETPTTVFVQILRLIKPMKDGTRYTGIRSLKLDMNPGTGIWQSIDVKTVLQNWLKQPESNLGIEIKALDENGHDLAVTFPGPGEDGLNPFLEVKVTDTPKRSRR
T1 sequence 2: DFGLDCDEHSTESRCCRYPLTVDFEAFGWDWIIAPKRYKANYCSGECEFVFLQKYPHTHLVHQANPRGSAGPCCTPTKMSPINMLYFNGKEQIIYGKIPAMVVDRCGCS
Procedure: (§1) The kinetic parameters of anti-latent myostatin antibodies against human, cynomolgus monkey (cyno), and mouse latent myostatin were assessed at 37° C. at pH7.4 using a BIACORE® T200 instrument (GE Healthcare). ProA/G (Pierce) was immobilized onto all flow cells of a CM4 chip using amine coupling kit (GE Healthcare). Anti-latent myostatin antibody and analytes were prepared in ACES pH7.4 (20 mM ACES, 150 mM NaCl, 1.2 mM CaCl₂), 0.05% TWEEN® 20, 0.005% NaN₃). […] Then human, cyno, or mouse latent myostatin was injected at 3.125 to 50 nM prepared by two-fold serial dilution, followed by dissociation. The sensor surface was regenerated with 25 mM NaOH. Kinetic parameters were determined by processing and fitting the data to a 1:1 binding model using BIACORE® T200 Evaluation software, version 2.0 (GE Healthcare).
(§2) All experimental settings were the same as in Example 7, except that measurements were also performed in ACES pH5.8 buffer in addition to ACES pH7.4 condition. Some antibodies were only measured against human latent myostatin. Antibody capture level was aimed at 185 RU and 18.5 RU, for avidity and affinity assay, respectively. Kinetic parameters were determined using 1:1 Binding fitting using BIACORE® T200 Evaluation software, version 2.0 (GE Healthcare).

[2] = target: T1, Human latent myostatin; assay: SPR (BIACORE T200), 37 C, pH5.8, avidity condition (capture 185 RU), 1:1 fit; pH 5.8
Procedure: as §1, §2

[3] = target: T1, Human latent myostatin; assay: SPR (BIACORE T200), 37 C, pH7.4, avidity condition (capture 185 RU), 1:1 fit; pH 7.4
Procedure: as §1, §2

[4] = target: T2, Mouse latent myostatin (mouse, UniProt O08689 26-267; O08689 268-376); assay: SPR (BIACORE T200) 37C, pH 7.4, antibody captured by ProA/G
T2 construct: Latent form = complex of two propeptides and the mature dimer
T2 sequence 1: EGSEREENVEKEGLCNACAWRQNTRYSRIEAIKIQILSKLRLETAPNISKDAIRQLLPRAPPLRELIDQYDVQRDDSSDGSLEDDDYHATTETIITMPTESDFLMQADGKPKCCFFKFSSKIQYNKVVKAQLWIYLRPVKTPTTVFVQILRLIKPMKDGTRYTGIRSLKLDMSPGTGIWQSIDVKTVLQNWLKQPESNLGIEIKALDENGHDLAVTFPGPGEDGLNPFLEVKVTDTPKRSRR
T2 sequence 2: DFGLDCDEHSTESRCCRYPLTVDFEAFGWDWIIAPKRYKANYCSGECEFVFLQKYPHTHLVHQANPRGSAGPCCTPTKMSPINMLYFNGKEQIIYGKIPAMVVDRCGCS
Procedure: (§3) ProA/G (Pierce) was immobilized onto all flow cells of a CM4 chip using an amine coupling kit (GE Healthcare). All antibodies and analytes were prepared in ACES pH7.4 or pH5.8 buffer containing 20 mM ACES, 150 mM NaCl, 1.2 mM CaCl₂, 0.05% TWEEN®) 20, 0.005% NaN₃. […] Human, cyno, and mouse latent myostatin was injected at 3.125 to 50 nM prepared by two-fold serial dilution, followed by dissociation. The sensor surface was regenerated each cycle with 10 mM Glycine HCl pH1.5. Binding affinity was determined by processing and fitting the data to a 1:1 binding model using BIACORE® T200 Evaluation software, version 2.0 (GE Healthcare).

[5] = target: T3, Human latent myostatin (human, UniProt O14793 25-266; O14793 267-375); assay: as above
T3 construct: also called human myostatin latent form
T3 sequence 1: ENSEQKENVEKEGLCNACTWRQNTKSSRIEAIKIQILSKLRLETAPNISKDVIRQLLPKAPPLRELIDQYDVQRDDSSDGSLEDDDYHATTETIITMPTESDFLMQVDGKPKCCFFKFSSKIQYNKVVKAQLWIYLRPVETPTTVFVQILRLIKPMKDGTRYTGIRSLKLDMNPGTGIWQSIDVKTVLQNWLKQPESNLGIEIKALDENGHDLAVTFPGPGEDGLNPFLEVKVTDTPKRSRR
T3 sequence 2: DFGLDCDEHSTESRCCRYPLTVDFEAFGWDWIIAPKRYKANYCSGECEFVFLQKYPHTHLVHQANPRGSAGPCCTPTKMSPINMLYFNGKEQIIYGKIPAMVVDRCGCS
Procedure: as §3

[6] = target: T4, Cynomolgus monkey latent myostatin (cynomolgus monkey, UniProt Q95J86 25-266; Q95J86 267-375); assay: as above
T4 construct: Latent form = complex of two propeptides and the mature dimer; also called Cyno latent myostatin
T4 sequence 1: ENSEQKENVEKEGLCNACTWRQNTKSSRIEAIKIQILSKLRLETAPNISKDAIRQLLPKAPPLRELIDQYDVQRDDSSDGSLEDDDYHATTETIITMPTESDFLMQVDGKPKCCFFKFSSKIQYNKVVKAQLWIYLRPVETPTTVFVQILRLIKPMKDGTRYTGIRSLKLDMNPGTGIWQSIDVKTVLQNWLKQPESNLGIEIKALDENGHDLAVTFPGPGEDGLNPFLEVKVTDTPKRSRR
T4 sequence 2: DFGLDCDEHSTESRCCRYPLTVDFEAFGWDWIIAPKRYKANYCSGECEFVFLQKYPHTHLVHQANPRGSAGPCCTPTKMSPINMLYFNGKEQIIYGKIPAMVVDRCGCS
Procedure: as §3

[7] = target: T2, Mouse latent myostatin; assay: SPR 37C; KD pH 5.8 / KD pH 7.4
Procedure: as §3

[8] = target: T3, Human latent myostatin; assay: SPR 37C; KD pH 5.8 / KD pH 7.4
Procedure: as §3

[9] = target: T4, Cynomolgus monkey latent myostatin; assay: SPR 37C; KD pH 5.8 / KD pH 7.4
Procedure: as §3

[10] = target: T2, Mouse latent myostatin; assay: SPR (BIACORE T200) 37C, pH 5.8, antibody captured by ProA/G
Procedure: as §3

[11] = target: T3, Human latent myostatin; assay: as above
Procedure: as §3

[12] = target: T4, Cynomolgus monkey latent myostatin; assay: as above
Procedure: as §3

Binder | Kd [1] | koff [1] | kon [1] | Kd [2] | koff [2] | kon [2] | Kd [3] | koff [3] | kon [3] | Kd [4] | Kd [5] | Kd [6] | ratio of KD at pH 5.8/pH 7.4 [7] | ratio of KD at pH 5.8/pH 7.4 [8] | ratio of KD at pH 5.8/pH 7.4 [9] | Kd [10] | Kd [11] | Kd [12]
B1 | 1640 pM | 0.00179 s⁻¹ | 1.09e+06 M⁻¹ s⁻¹ | 24300 pM | 0.0414 s⁻¹ | 1.7e+06 M⁻¹ s⁻¹ | 298 pM | 0.000249 s⁻¹ | 836000 M⁻¹ s⁻¹ | – | – | – | – | – | – | – | – | –
B2 | – | – | – | – | – | – | – | – | – | 413 pM | 407 pM | 492 pM | 60 | 209 | 73 | 24800 pM | 84900 pM | 35800 pM
B3 | – | – | – | – | – | – | – | – | – | 334 pM | 351 pM | 419 pM | 35 | 125 | 38 | 10900 pM | 43800 pM | 16100 pM
B4 | – | – | – | – | – | – | – | – | – | 176 pM | 164 pM | 189 pM | 6 | 9 | 5 | 1020 pM | 1520 pM | 929 pM
